Here are results for 3 molecules from patent US20240026407A1, “MODIFICATION OF SAPONINS” (GLAXOSMITHKLINE BIOLOGICALS SA, priority 2020, published 2024).

The labels stand for the following.
B1: 1077 (protein, listed as Bacillus sp.)
chain: MAGRNWNASWIWGGQEESPRNEWRCFRGSFDAPASVEGPAMLHITADSRYVLFVNGEQVGRGPVRSWPKEQFYDSYDIGGQLRPGVRNTIAVLVLHFGVSNFYYLRGRGGLIAEIEADGRTLAATDAAWRTERLGGQRSNSPRMACQQGFGEVIDARELAEDWALPAFDDGGWAQARSIGPAGTAPWTSLVPRDIPFLTEEKLYPASIQSLSRVKAPKYAAALDLRNQMVPESVNHANPVSYCGYVATILTLETSGVVTLGFPTGVRGSGVWVDGVLQTEWTGVQPERYYSLNLAAGEHLVLVDITSSDHGGSSHFAIDSEAAFTLRSPAGDNGVPLATIGTFDQSEYIDHRPGRRMQTDHPDYRALPEAAPTAAALEAFASWVKPFEPSLYTEENVFGSNVWRTLAERRAVPRSVLNAILPVPEPGVLPVFEDGDCELVIDLGAERSGFIGFELEAPAGTIIDAYGVEYMREGYTQHTYGLDNTFRYICREGRQSYVSPVRRGFRYLFLTVRGNSAPVKLHEIYIRQSTYPVAEQGSFRCSDALLNATWEISRHTTRLCMEDTFVDCPSYEQVFWVGDSRNEALVNYYVFGETEIVERCLNLVPGSADETPLYLDQVPSAWSSVIPNWTFFWILACREYAAHTGNEAFAARIWPAVKHTLTHYLEHIDDSGLLNMAGWNLLDWAPIDQPNEGIVTHQNLFLVKALRDSRALAAAAGATEEADAFAARADLLAETINAVLWDEEKRAYIDCIHADGRRSDVYSMQTQVVAYLCGVAQGEREAVIEGYLSSPPPAFVQIGSPFMSFFYYEALEKAGRQTLMLDDIRRNYGQMLRYDATTCWEMYPNFAENRSNPDMLTRSHCHAWSAAPGYFLGSSILGVKRGADGWRTVDIAPQPCDLTWAEGVVPLPQGGHIAVSWEFVSAGKLKLRIEAPEDIEVNVTLPEGIEGEVTQVKYMS
B2: 993 (protein)
chain: MKKLLLCLCFLAIGFLSNAKIKPTQLTCEYLKNPSVVDVLQPRLAWINVADAGERGQEQTAYQIRVASLKEKLENADLWDSGKVKDDASIRVKYDGEKLVSRQDCWWQVRVWDKNNEVSEWSEPAYWHMGLLNENDWTANWIGVPWQGEETLPKPASPAATLPGELPPPAPLFRKEFNATKQVEKAVAYVTGLGYFELYLNGEKVGDDVLVPNQTNYGKRPALTQQYIPLDDNFKEYKVMYLAYDISDQLVSGANTFGAILGNGFYNPSKHWALGYGTPRLLVQVHVAYTDGTEELIVSDESWKVSKSPILMDMVYYGEHYDARLEQDGWCSAGFDDSAWENAILRKAPEGKLVAHTAHPDKVYETLQPVRIEKMYNGNYKVDFGEEISGWVRLKNVEGPEGHKVKINYLSNNYSGDNSYIFKGEGKENYAARFNWFVFREVEIENWPGVLAPENICAEAINTYIEESAHFETSNPLFNQVNKIWKRSQTDNMHGGIASDCPHRERSPYTGDGQVACVTVMHNFDAQNFYYKWIHDMIGAQNVKTGYVPNGAPWQPGCGGGVAWGAAINIIPWEFYVHYGAVDMLEEAYEPMKEYVRYMQTWVNNEGIMNSQRVGLDGNVLQWFNLGEWVTPGDLPPDSLVHTFYFWRCADITAKTAEILGKRKEAKRNRELAETTQSAFHKCFFDAEKGTYGNAGANIFALKMGVPENEYQRVINALKANIKKNKGHLDTGIFGTQFFFEVLSENGLHELAYEAMNKKEEPGYGRWLTLGATTSWENWNTDGSHNHPMFGGGLVWLYRKLAGMQADEKNPGYRHIIFHPQPIKELEFAEYFNKTPYGKAGIKWQQTEGKLSVGVTVPVGCTATVILPGGHFLADGKAMEKVAEVQLVSQKEDELIIKVGAGNYQFSN
modifications: Draconibacterium orientale
B3: 992 (protein, listed as Roseburia intestinalis)
chain: MGKIYAAKTNHITNPIGFNMDSIAFSWKVKGCRGQEQKYARIVISKNKTFTDICYDTGETELDSLSTRVEFEIQPYTRYYWKVIVTTDVEEVIESDVQFFETAKMDEPWTGRWITCDSSQERHPIFSKRIEPKKEVKSARLYICGLGLYEAYFLGENKENPKKIGDEYLTPYCNNYDRWIQYQTYDITEQAERGGVLSVLLGNGWYKGRFGFNDPEREAYYGDEWKLIAEVHIEYKDGTKDVISSDETWSVTRSNLWFSNIYDGERRDDTLPPVEESPARIAKAPKGRLMERLSLPVKVQEEMKPAELIHTPAGEDVFDLGQEITGIFQLRVNEPSGTIIRIQTGEILQDGCFYNENLRTALSEYVYVSDGMEKVIIPHFTYYGYRYVKVSGVTNLSCEDFMAIVLYSDYESIGTVETGSELVNKLISNIEWGMKGNFLDVPTDCPQRDERMGWTGDTQVFSATASYLADTYAFYRKYLYDLYQEQLLAGGMVPEIVPTFGPTKCSCAWGDAACIIPWNVYLFSGDKTILENQIESMKAWVDYIRRIDGDHHGWRQVFHYGDWLALDRTGAAANSVYGATDEAYIADIYYAASAQIVAKAAEVLGLEETRQEYHKIADRQWQVVKEEYFTATGRCAVKTQTGLILALKYHLSENEELTREMLKKLLRDNKNKLNTGFVGTPLLCNVLTDHGMTDAAYRLLLNEEYPGWLHEVKLGATTVWERWNSLDESGHVSSTGMNSLNHYSYGAILEWIFRHAAGIDVMEQSPGGKVMRISPKVNSELKYVKAVYDSATGCYQCGWEILEGNKITITVTVPFGGKAEVVLPYAPECIYEDIENPLFEAVENGICHVKAGEYEVVYEASEPLKKRYSIDSTMEELLNHPDIRAFLSQMVEVDMIPDIAYGLSLRDVAKTFAGEIKPDEAQMLDKALAKF

The first assay is described as follows: Experiment 6-1: screening of rhamnosidases for derhamnosylation of saponins in treated bark extract (2%), desglucosyl-QS-17 2134 to QS-21 1988 (PAR %). The following applies: TBE 2%, pH 7.5, 30 degC, 18 h; TIC peak area ratio percent, LCMS/MS; negative controls 2.719, 2.158. The format is biochemical, Quillaja saponaria.
On to B1, for which the “Peak75 (PAR %)” value is 2.138%.
Still for that read-out and setting: the figure for B2 is 2.211%; for B3 it is 0.000%.

A short description of another assay: Experiment 6-1: screening of rhamnosidases for derhamnosylation of saponins in treated bark extract (2%), QS-17 2310 to QS-18 2164 (PAR %). The format is biochemical, Quillaja saponaria. Particulars: TBE 2%, pH 7.5, 30 degC, 18 h; TIC peak area ratio percent, LCMS/MS; negative controls 3.061, 2.429.
Turning to B1, the “Peak57 (PAR %)” value came to 2.532%.
Turning to B2, the “Peak57 (PAR %)” value amounted to 1.129%.
In the case of B3, the “Peak57 (PAR %)” value is on record as 0.000%.

The next assay can be described thus: Experiment 6-3: screening of rhamnosidases for derhamnosylation of saponins in crude bark extract (80%), relative % of Left, Middle and Right Peak by UV HPLC. The format is biochemical, Quillaja saponaria. The following applies: CBE 80%, pH 7.4, 30 degC, 19.5 h, mainly QS-17 family, negative control 27%. Summed up:
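Clarified lysates of expressed rhamnosidase variants were incubated with crude bark extract (pH 7.4, final 80%) at 30 degC with shaking for 19.5 h, then quenched with MeCN+2% AcOH. UV HPLC gave relative % of Left (QS-17), Middle (QS-18/desglucosyl-QS-17) and Right (QS-21) peaks.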
Consider B1, for which the “Left Peak” value worked out at 26%.
On the same count and under the same terms, the figure for B2 is 25%.
Take B3: the “Left Peak” value stood at 21%.

Staying with this assay, now noted: CBE 80%, pH 7.4, 30 degC, 19.5 h, mainly QS-18 and desglucosyl-QS-17 family, negative control 48%.
Turning to B1, the “Middle Peak” value amounted to 48%.
With B2, the “Middle Peak” value was determined as 49%.
With B3, the “Middle Peak” value is given as 49%.

Staying with this assay, now noted: CBE 80%, pH 7.4, 30 degC, 19.5 h, mainly QS-21 family, negative control 26%.
On to B1, for which the “Right Peak” value turned out to be 27%.
On to B2, for which the “Right Peak” value amounted to 26%.
For the molecule B3, the “Right Peak” value was 30%.

A further assay is described as follows: Experiment 6-1: specificity of rhamnosidases towards other rhamnose residues (C3 saccharide rhamnose, C28 saccharide rhamnose). The format is biochemical, Quillaja saponaria. Particulars: TBE 2%, pH 7.5, 30 degC, 18 h; LCMS/MS; negative controls 0.18, 0.17.
On to B1, for which the “ratio PP/QS-21” value amounted to 0.18.
Still for that read-out and setting: the figure for B2 is 0.18; for B3 it is 0.20.

Another assay in a line: Experiment 6-2: screening of rhamnosidases for derhamnosylation of saponins in treated bark extract (25%), relative % of Left, Middle and Right Peak by UV HPLC. The class given is biochemical, Quillaja saponaria. Particulars: TBE 25%, pH 7.4, 19.5 h, mainly QS-17 family, negative control 24%.
For B1, the “Left Peak” value is given as 23%.
For B2, the “Left Peak” value is given as 18%.
Regarding B3, the “Left Peak” value is given as 7%.

Still in this assay, the particulars now being: TBE 25%, pH 7.4, 19.5 h, mainly QS-18 and desglucosyl-QS-17 family, negative control 50%.
In the case of B1, the “Middle Peak” value was 51%.
With B2, the “Middle Peak” value amounted to 56%.
For B3, the “Middle Peak” value was 62%.

Still in this assay, the particulars now being: TBE 25%, pH 7.4, 19.5 h, mainly QS-21 family, negative control 26%.
Take B1: the “Right Peak” value was determined as 26%.
As to B2, the “Right Peak” value was 27%.
Regarding B3, the “Right Peak” value is given as 31%.

A short description of the next assay: Experiment 6-1: screening of rhamnosidases for derhamnosylation of saponins in treated bark extract (2%), QS-17 2296 to QS-18 2150 (PAR %). The format is biochemical, Quillaja saponaria. Particulars: TBE 2%, pH 7.5, 30 degC, 18 h; TIC peak area ratio percent of rhamnosylated starting saponin to derhamnosylated product, LCMS/MS; negative controls 4.876, 5.225.
For B1, the “QS-17 (PAR %)” value came out at 3.964%.
With B2, the “QS-17 (PAR %)” value is recorded as 3.836%.
As to B3, the “QS-17 (PAR %)” value is listed as 0.000%.
